This is an account of results in the supplement of paper PMC7877785.

± gives the uncertainty stated by the source.

This data set in a line: self-splicing fitness, log relative to wild type (ln ratio); higher = more splicing; Tetrahymena group I intron in knt gene, E. coli kanamycin selection, DiMSum; sequences stand for … in CUCUCU…GGAGGGAAAAGUUAUCAGGCAUGCACCUGGUAGCUAGUCUUUAAACCAAUAGAUUGCAUCGGUUUAAAAGGCAAGACCGUCAAAUUGCGGGAAAGGGGUCAACAGCCGUUCAGUACCAAGUCUCAGGGGAAACUUUGAGAUGGCCUUGCAAAGGGUAUGGUAAUAAGCUGACGGACAUGGUCCUAACCACGCAGCCAAGUCCUAAGUCAACAGAUCUUCUGUUGAUAUGGAUGCAGUUCACAGACUAAAUGUCGGUCGGGGAAGAUGUAUUCUUCUCAUAAGAUAUAGUCGGACCUCUCCUUAAUGGGAGCUAGCGGAUGAAGUGAUGCAACACUGGAGCCGCUGGGAACUAAUUUGUAUGCGAAAGUAUAUUGAUUAGUUUUGGAGUACUCGUGGUCG
Put shortly:
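Six replicate transformations of E. coli BL21(DE3) with a pET-22b(+) library were grown overnight at 37°C or 30°C. The library randomised all eight P1ex-region intron nucleotides, the intron lying in the knt kanamycin-resistance gene, and plates were LB agar with or without 25 μg/mL kanamycin plus 100 μg/mL carbenicillin, 50 μM IPTG and 0.2% rhamnose. Pooled colonies were amplicon-sequenced on an Illumina HiSeq 2500, and fitness is the DiMSum error-weighted combination of wild-type-normalised replicate fold changes, kanamycin versus none.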

Turning to GUCUAGCAAUAUUACGGCGU, the “self-splicing fitness (ln)” value is, setting by setting: (30 °C) 0.142 ± 0.069; (37 °C) 0.0882 ± 0.091. Consider UGACAGCAAUAUUACGUUGG, for which the “self-splicing fitness (ln)” value runs as follows: (30 °C) -2.08 ± 0.12; (37 °C) -1.82 ± 0.13.

For the sequence ACAGAGCAAUAUUACGUCUA, the “self-splicing fitness (ln)” value reads like this: (30 °C) -3.22 ± 0.33; (37 °C) -1.73 ± 0.29. Taken in the same sequence, the figures for GCGAAGCAAUAUUACGUAGU were -3.8 ± 0.34 and -2.13 ± 0.18. Taken in the same sequence, the figures for AAAGAGCAAUAUUACGCGCA were -2.39 ± 0.17 and -1.5 ± 0.12.

On to GCCCAGCAAUAUUACGAAUA, for which the “self-splicing fitness (ln)” value (30 °C) was -1.62 ± 0.1 and the “self-splicing fitness (ln)” value (37 °C) was -1.19 ± 0.12. Taken in the same sequence, the figures for UAAUAGCAAUAUUACGGUAC were -3.69 ± 0.43 and -2.37 ± 0.37.

For GACCAGCAAUAUUACGGAUA, the “self-splicing fitness (ln)” value is, setting by setting: (30 °C) -0.244 ± 0.058; (37 °C) 0.0596 ± 0.075. Taken in the same sequence, the figures for UUCCAGCAAUAUUACGUGCA were -1.44 ± 0.1 and -1.11 ± 0.087. Turning to UAGAAGCAAUAUUACGAGCG, the “self-splicing fitness (ln)” value by setting is: (30 °C) -0.732 ± 0.096; (37 °C) -0.815 ± 0.13. Taken in the same sequence, the figures for AUAUAGCAAUAUUACGAUAG were -2.39 ± 0.22 and -1.51 ± 0.24.

On to ACUCAGCAAUAUUACGGUAU, for which the “self-splicing fitness (ln)” value reads like this: (30 °C) -1.67 ± 0.057; (37 °C) -0.522 ± 0.093. Taken in the same sequence, the figures for AGAAAGCAAUAUUACGGGGA were -3.05 ± 0.17 and -2.07 ± 0.17. Taken in the same sequence, the figures for AUGGAGCAAUAUUACGCUUG were -1.46 ± 0.12 and -0.294 ± 0.12. Taken in the same sequence, the figures for GACAAGCAAUAUUACGCCCU were -0.581 ± 0.14 and 0.33 ± 0.15. Take AGCUAGCAAUAUUACGCGGG: the “self-splicing fitness (ln)” value (30 °C) is -3.3 ± 0.15 and the “self-splicing fitness (ln)” value (37 °C) was -1.53 ± 0.14. Taken in the same sequence, the figures for CUGCAGCAAUAUUACGGUCU were -3.44 ± 0.17 and -2.07 ± 0.2.

Turning to GCUUAGCAAUAUUACGGGAA, the “self-splicing fitness (ln)” value (30 °C) is -0.679 ± 0.12 and the “self-splicing fitness (ln)” value (37 °C) was determined as 0.196 ± 0.11. Taken in the same sequence, the figures for GGACAGCAAUAUUACGCGUG were -1.17 ± 0.065 and -0.234 ± 0.074.

CAUAAGCAAUAUUACGCGAG: the “self-splicing fitness (ln)” value (30 °C) was -1.99 ± 0.097 and the “self-splicing fitness (ln)” value (37 °C) was -1.39 ± 0.085. Taken in the same sequence, the figures for UGGCAGCAAUAUUACGCGGG were -2.76 ± 0.27 and -1.48 ± 0.24. Take UAACAGCAAUAUUACGAGAA: the “self-splicing fitness (ln)” value by setting is: (30 °C) -2.22 ± 0.22; (37 °C) -2.07 ± 0.23. Taken in the same sequence, the figures for UCAAAGCAAUAUUACGGAAU were -3.53 ± 0.17 and -2.94 ± 0.23. Taken in the same sequence, the figures for GUCGAGCAAUAUUACGGUAA were -1.74 ± 0.19 and -2.18 ± 0.19. Taken in the same sequence, the figures for CACGAGCAAUAUUACGAGCC were -3.12 ± 0.31 and -3.55 ± 0.47.

For AGAUAGCAAUAUUACGUUAA, the “self-splicing fitness (ln)” value was -2.88 ± 0.18 (30 °C) and -2.01 ± 0.18 (37 °C). Taken in the same sequence, the figures for UUAGAGCAAUAUUACGUCCG were -2.38 ± 0.24 and -1.99 ± 0.34. Taken in the same sequence, the figures for UGAUAGCAAUAUUACGCCCA were 0.955 ± 0.13 and -0.0259 ± 0.17. Taken in the same sequence, the figures for GUCUAGCAAUAUUACGUUGC were -2.55 ± 0.42 and -0.754 ± 0.41. Turning to UGUGAGCAAUAUUACGUCCA, the “self-splicing fitness (ln)” value is, setting by setting: (30 °C) -0.973 ± 0.13; (37 °C) -0.0412 ± 0.16.

Consider CAAUAGCAAUAUUACGUUGU, for which the “self-splicing fitness (ln)” value reads like this: (30 °C) -3.27 ± 0.14; (37 °C) -2.12 ± 0.17.

Turning to AUGGAGCAAUAUUACGUGAA, the “self-splicing fitness (ln)” value (30 °C) is -2.92 ± 0.27 and the “self-splicing fitness (ln)” value (37 °C) is -2.03 ± 0.42. With UCAGAGCAAUAUUACGCGCU, for the setting “37 °C”, the “self-splicing fitness (ln)” value is -1.62 ± 0.29. Regarding AACUAGCAAUAUUACGCAAA, the “self-splicing fitness (ln)” value by setting is: (30 °C) -2.38 ± 0.13; (37 °C) -1.72 ± 0.1. Taken in the same sequence, the figures for CACGAGCAAUAUUACGGCUC were -2.71 ± 0.29 and -1.6 ± 0.28.

Take GAUUAGCAAUAUUACGCCUU: the “self-splicing fitness (ln)” value runs as follows: (30 °C) -0.529 ± 0.11; (37 °C) -0.304 ± 0.12.

Take AUUGAGCAAUAUUACGCUGA: the “self-splicing fitness (ln)” value is, setting by setting: (30 °C) -3.1 ± 0.36; (37 °C) -2.27 ± 0.29. As for CAACAGCAAUAUUACGGAUC, the “self-splicing fitness (ln)” value runs as follows: (30 °C) -3.08 ± 0.12; (37 °C) -1.89 ± 0.12.

For GUGCAGCAAUAUUACGUUAU, the “self-splicing fitness (ln)” value runs as follows: (30 °C) -1.84 ± 0.084; (37 °C) -0.973 ± 0.098.

Take CUGCAGCAAUAUUACGUGUA: the “self-splicing fitness (ln)” value (30 °C) was -3.82 ± 0.23 and the “self-splicing fitness (ln)” value (37 °C) was -2.63 ± 0.16. Taken in the same sequence, the figures for GCUUAGCAAUAUUACGUGAC were -1.54 ± 0.09 and -1.08 ± 0.13.

Take CGUAAGCAAUAUUACGCGCU: the “self-splicing fitness (ln)” value (30 °C) is -2.03 ± 0.14 and the “self-splicing fitness (ln)” value (37 °C) was -1.52 ± 0.15. Taken in the same sequence, the figures for GCCCAGCAAUAUUACGAAAC were -1.34 ± 0.058 and -0.851 ± 0.078.

As for AUAUAGCAAUAUUACGCUAU, the “self-splicing fitness (ln)” value is, setting by setting: (30 °C) -2.98 ± 0.27; (37 °C) -0.715 ± 0.24. Taken in the same sequence, the figures for GCCUAGCAAUAUUACGAGCU were -1.03 ± 0.14 and -1.51 ± 0.14. Taken in the same sequence, the figures for CCCAAGCAAUAUUACGGAUU were -2.56 ± 0.12 and -2.71 ± 0.16. Taken in the same sequence, the figures for CAGAAGCAAUAUUACGAUUG were -1.92 ± 0.11 and -1.47 ± 0.12. For the sequence UUUCAGCAAUAUUACGUGAG, the “self-splicing fitness (ln)” value runs as follows: (30 °C) -0.129 ± 0.054; (37 °C) -0.623 ± 0.07. Taken in the same sequence, the figures for ACAUAGCAAUAUUACGUUUU were -3.76 ± 0.16 and -2.59 ± 0.17.

On to CACCAGCAAUAUUACGCAAG, for which the “self-splicing fitness (ln)” value is, setting by setting: (30 °C) -0.716 ± 0.093; (37 °C) -0.12 ± 0.11. Taken in the same sequence, the figures for AAUCAGCAAUAUUACGAAUG were -0.581 ± 0.069 and -0.488 ± 0.12. Taken in the same sequence, the figures for CCCCAGCAAUAUUACGGGAU were -3.28 ± 0.12 and -2.48 ± 0.14.

On to GAUGAGCAAUAUUACGCCAA, for which the “self-splicing fitness (ln)” value runs as follows: (30 °C) -2.45 ± 0.26; (37 °C) -2.61 ± 0.29. Consider CUCGAGCAAUAUUACGGAUG, for which the “self-splicing fitness (ln)” value reads like this: (30 °C) -2.21 ± 0.13; (37 °C) -1.46 ± 0.17. As to CUACAGCAAUAUUACGCAGA, the “self-splicing fitness (ln)” value runs as follows: (30 °C) -3.97 ± 0.28; (37 °C) -3.07 ± 0.22. Taken in the same sequence, the figures for CUGGAGCAAUAUUACGAGGU were -3.48 ± 0.23 and -2.11 ± 0.17. Taken in the same sequence, the figures for CAUUAGCAAUAUUACGCGUG were -3.16 ± 0.15 and -2.89 ± 0.24.

For the sequence GGGCAGCAAUAUUACGAACU, the “self-splicing fitness (ln)” value was -0.431 ± 0.065 (30 °C) and -0.278 ± 0.09 (37 °C).

For the sequence CAUGAGCAAUAUUACGCUGA, the “self-splicing fitness (ln)” value is -3.24 ± 0.18 (30 °C) and -3.09 ± 0.23 (37 °C). Taken in the same sequence, the figures for UGUAAGCAAUAUUACGGUAA were -1.8 ± 0.2 and -0.586 ± 0.12. Taken in the same sequence, the figures for CAGAAGCAAUAUUACGGGUC were -3.4 ± 0.29 and -2.55 ± 0.2. Consider CCAAAGCAAUAUUACGGCCU, for which the “self-splicing fitness (ln)” value is, setting by setting: (30 °C) -3.59 ± 0.18; (37 °C) -3.33 ± 0.37. Taken in the same sequence, the figures for CACUAGCAAUAUUACGUAGU were -3.45 ± 0.14 and -2.92 ± 0.18. Taken in the same sequence, the figures for AAGGAGCAAUAUUACGCUAU were -3.76 ± 0.4 and -1.69 ± 0.26. For CGCCAGCAAUAUUACGCCCA, the “self-splicing fitness (ln)” value is -1.42 ± 0.18 (30 °C) and -0.853 ± 0.19 (37 °C). Taken in the same sequence, the figures for ACGCAGCAAUAUUACGUUCA were -1.96 ± 0.11 and -0.844 ± 0.094.

Take CCAGAGCAAUAUUACGGAGU: the “self-splicing fitness (ln)” value runs as follows: (30 °C) -3.32 ± 0.21; (37 °C) -3.21 ± 0.28. Taken in the same sequence, the figures for CGAAAGCAAUAUUACGCUCA were -0.156 ± 0.094 and 0.0149 ± 0.13.

Take UUAUAGCAAUAUUACGUUAC: the “self-splicing fitness (ln)” value was -4.01 ± 0.43 (30 °C) and -3.56 ± 0.37 (37 °C).

In the case of GUCUAGCAAUAUUACGCAAG, the “self-splicing fitness (ln)” value (37 °C) was -1.66 ± 0.38. Take CAUGAGCAAUAUUACGCAUU: the “self-splicing fitness (ln)” value runs as follows: (30 °C) -2.88 ± 0.19; (37 °C) -2.03 ± 0.24. Taken in the same sequence, the figures for AGAAAGCAAUAUUACGGAAC were -3.04 ± 0.25 and -1.84 ± 0.29. Taken in the same sequence, the figures for GAGAAGCAAUAUUACGCCGU were -2.18 ± 0.21 and -1.89 ± 0.21. For the sequence AUACAGCAAUAUUACGUAGU, the “self-splicing fitness (ln)” value is, setting by setting: (30 °C) -1.34 ± 0.067; (37 °C) -0.206 ± 0.083. On to UCCAAGCAAUAUUACGUGCU, for which the “self-splicing fitness (ln)” value is, setting by setting: (30 °C) -3.49 ± 0.22; (37 °C) -2.76 ± 0.22.
